# Article PMC13083842
# Biological target: interleukin-6 (IL-6) (human) (UniProt P05231)
# Experiment: SPR; IL-6 amine-coupled on a CM5 chip (Biacore T200); analytes in multi-cycle kinetics, 0.39 to 100 nM, 30 µL/min, 180 s association, 1200 s dissociation, HBS-N + 10 mM CaCl2; global fit, 1:1 model; where koff was below the detection limit KD was estimated from kon and the theoretical maximum koff
# Chain of interleukin-6 (IL-6) (human) (P05231 30-212): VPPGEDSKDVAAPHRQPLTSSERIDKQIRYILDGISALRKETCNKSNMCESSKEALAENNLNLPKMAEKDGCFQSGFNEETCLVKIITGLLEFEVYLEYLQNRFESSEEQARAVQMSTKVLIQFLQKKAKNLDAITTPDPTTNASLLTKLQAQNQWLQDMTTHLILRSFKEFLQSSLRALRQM
Kd,koff,kon,Substance
428 nM,–,–,sIL-6R-TGN 1:5 (from UniProt P08887 20-355) (receptor)
131 nM,0.035 s⁻¹,248000 M⁻¹ s⁻¹,soluble IL-6 receptor (sIL-6R) (from UniProt P08887 20-355)
